In patent US20230052256A1:

Key:
[1] = target: recombinant human FGFR1b-Fc (R&D Systems) (human) (UniProt P11362); test: SPR (Biacore T200), hFGFR1b-Fc amine-coupled to CM5 chip, antibody injected
[2] = target: recombinant human FGFR1b-Fc (R&D Systems) (human) (UniProt P11362); test: SPR (Biacore T200), hFGFR1b-Fc amine-coupled to a CM5 chip, antibody injected at 0-200 nM
[3] = target: human FGFR2b (beta)-Fc, human Fc fusion (human); test: SPR (Biacore T200), hFGFR2b-Fc amine-coupled to a CM5 chip, antibody injected at 0-200 nM

Sequence of recombinant human FGFR1b-Fc (R&D Systems) (human) (P11362 other isoform, or with tags, fused parts or gaps limits assumed): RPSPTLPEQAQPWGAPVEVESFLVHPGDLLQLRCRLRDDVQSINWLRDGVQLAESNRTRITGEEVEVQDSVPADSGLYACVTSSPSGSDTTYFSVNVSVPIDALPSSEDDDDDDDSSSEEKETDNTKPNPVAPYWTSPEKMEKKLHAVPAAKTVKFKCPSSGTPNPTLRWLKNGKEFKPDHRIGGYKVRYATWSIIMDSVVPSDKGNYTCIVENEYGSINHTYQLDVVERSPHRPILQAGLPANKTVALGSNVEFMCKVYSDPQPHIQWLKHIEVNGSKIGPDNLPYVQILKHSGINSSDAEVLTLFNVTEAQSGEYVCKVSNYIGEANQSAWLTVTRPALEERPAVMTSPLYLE

B1: FPA144 (clinical stage anti-human FGFR2b specific antibody) (antibody, INN chains, looked up, V domains shown)
VH: QVQLVQSGAEVKKPGSSVKVSCKASGYIFTTYNVHWVRQAPGQGLEWIGSIYPDNGDTSYNQNFKGRATITADKSTSTAYMELSSLRSEDTAVYYCARGDFAYWGQGTLVTVSS
VL: DIQMTQSPSSLSASVGDRVTITCKASQGVSNDVAWYQQKPGKAPKLLIYSASYRYTGVPSRFSGSGSGTDFTFTISSLQPEDIATYYCQQHSTTPYTFGQGTKLEIK
Work on B1 yielded a Kd [1] of 0.225 µM, a koff [2] of 0.00746 s⁻¹ and a kon [2] of 33200 M⁻¹ s⁻¹. It also gave a Kd [3] of 0.00075 µM, a koff [3] of 7.77e-05 s⁻¹ and a kon [3] of 104000 M⁻¹ s⁻¹.
